Measurements as given in a protein production outcome set (Wang et al. 2014).

Experiment: label from the status in PepcDB records

Q: For “MMIMNNFDEKKLIQEFSKIQSELSPRIKLENNFQIEEIQFIAGVDLAYWNVNKTKYGTCCIVIIDYGTKEVVEKVYSYGEIPIPYIPGFLAFRELPLIIEAVKKLTKQPDIYFFDGNGYLHYRHMGIATHASFLLNKPTIGVAKSYLKIRDVDFIMPENLKGSYTDIVINNEVYGRTLRTTKNVKPIFVSCGNWIDLDTSTEIVMNCINNESRLPIPVRLADLETHKMRKKLMEGLEHHHHHH”, which protein production is on record?
A: Its protein production is “failed”.

Q: With “MMKNKVNIDTIIYLVLIITSLIFIYAGSFLFEEGSFIGNRGNNRTVDADTATDRNKPFPVVHKAVSTEINGIKQKINILEIDLSSGGVKIKPALAFDTIYGFQSLKDIAINNNAYAAVNAGFFYSYGEPSGMVVIDGKVYTKSTGKYPVFVVQGKNAFLSEIKSNIWILHGNRRIAADDINREGKPGETVVYTPVFGPTNRADKLHTSYIVENNRVARKFRGDTECKIPSDGMVITFYEPISSEEKFEVGDWIGIDIDPDFGPGFQAYECGSWLVRDGQVVAVDRDDWVGLLTNRDPRTAIGVKHDGKVVLVTVDGRQPGYSVGLSSRELAGYLLTLGIKDAAMLDGGASTQMIVQNKTVNRLPARERMLGGGIVVVVDEDL” as the sequence, how does the protein production read?
A: Its protein production is “failed”.

Q: With “MMKRVAVTGAAGRVGTLLRPLLRSHFEHLSLIDLQEPDELGENENFVRADFTKLDEATAALKDIDGVIHLAGIASGTDMNAILHANVLGTYNLYEAARINKVQRVVYASSNHATGFYPRGQLVSPLDPMRPDSPYGLSKCWGELVAGLYYDTSGIRSLSIRIGNAGTYPNSERSIAIWISARDLAQLVRIGLSHPLIAATVVYGVSDTEEKWWENDLATRLGYQPQDRPRDHALIEEGSEGPVALAFQGGGFCEINHDGTIRMRDADGLAKSPETVE” as the sequence, how does the protein production read?
A: The protein production was “failed”.

Q: Which protein production does the source give for “MMKSLGSIRRSFAPWADPASKPFISVKNVTKKFGDFTAVDDLSLNIYTREFFALLGASGCGKSTLLRMLAGFEQPTSGEIILDGQSLAGIPPYRRPVNMMFQSYALFPHMTVENNVAFGLKQDGMPKADIAERVAQMLKLVKLEKFAKRKPHQLSGGQRQRVALARSLAKRPKVLLLDEPLGALDKKLREETQFELMDLQQELGLTFVVVTHDQEEAMTMADRIAVMSHGKVVQVATPAEIYEAPNSRFVADFIGDVNIFDGKVTSAEDGYIRVETTGGIPVRMASPEKPGNGAKAAVAIRPEKIRIGRQPPAHAPVNAAEGEIWDIGYLGDMTVFHIRLKDGKVVKASSLNAVRAVEDPLGYDQQVWISFGDDAGVVLKD” here?
A: Its protein production is “failed”.

Q: For “MMMGRIKPTDGTAGNPEFNAELVAEKIEAITSPPPAPDTSEPDAAASQPAAPQTAAPPAQTVAQPAPVTPPIVSEPPAPQQAAAAPQPAVDESALRYFASRGDKVRLQAEISRLQALYPNWVPPADPLAVPQNGDKQLEAMWQLYSDGRYAELRKAVADRQAADAGWQPPADLLDRLDVAEGRARLVNASDLKQYATVVDIAAATPSLLTCSEIDVLWRVAEAFIQTERAQRGQDAYTYILKNCTNPAERQATVEKASTLLAYQPMQALLALERPAADGSKEFDAIRDNLARRFMAEGDDEPNLAIAPDYIARLEKLAETQGLASDALLLGWYQLRRNNDADAEKWFRAARAKQDSAAASQGLALALIARKAPEEAEDVMFRWRADSDDATSTYLAATANLMALQPPADLAEDVLHRIAGEVIARKYVPTAQQFGWYARSLNQFQTAARWFETALAWKPDDEPSAYGLVITREQLSDRKGVLDLQRAWAGRSSRITNLEDTSSLMPNAVTPPPAKGTLAAQQPAQPTQHPPAEPLPAERRVILQPGSEVVVRAARPSMETVNVPRGPRQTRGCSTTIDAGQLKPADALSRGWCLMDINRPMEAISAFESALQSPSRKVREDAAYGQSLAYLRAGLSGNAAVAATKAPQNRQRAAELQVAILADRALSAFDAGRYRETLIYLDQRAQLQQERIDLMVLRGYCYLNLKMYGDATRIFEAAAATGSRDAARGLADVRNVTHPDVND”, which protein production is on record?
A: Its protein production is “failed”.

Q: Which protein production does the source give for “MMMHPMNKTNKRDKMEKRNNPSALNIFMSFLKLGMVAFGGPTAIAYVREMVVDEKKWMDEKSFNNGVALAQIIPGASVMQVAAYVGFYLRGIVGAFAAFMAYALPAFLIMLFLTIIYMHVKSLPKTVSIFEALRIIVVSLAANGTLNFSKKNIRTIGDVFLLLISALLFILKFSPFIVIFVSIFIGFLMYRRDITKLSLKIDIPREKLRIYKYVAYLLFGVFLFNLILYMIDSKLFLLSTLMMKVDVFAFGGGYGSVPFMLHEVVDKYNLMDAKTFMDGIALGQITPGPIVITATFVGYIVGGFIGSIISTISVFTPSFIILLSSIPIFDSLKHNTIFKNILHMILVSFVGLLVAVTIRFALLVDWSIQALIIFIVSFLLLYKKYNMLLVVLLSLVLGYLIL” here?
A: The protein production was “failed”.

Q: For “MMMYKEPFGVKVDFETGIIEGAKKSVRRLSDMEGYFVDERAWKELVEKEDPVVYEVYAVEQEEKEGDLNFSTHVIYPGKVGKEFFFAKGHFHAKLDRAQVAVALKGKGGVLMQTPEGDAKWISSEPGTVIYSPPYWAARAVNIGDEPFIMLVIYPADAGHDYGTIAEKGFSKIVIEENGEVKVVDNPRWKKGSLEHHHHHH”, which protein production is on record?
A: The protein production was “not failed”.

Q: For “MMNDRFTRIKWLVGEEKFQKISQTKVLVCGLGGVGGICVDALYRSGFKNLTLIDADKFEITNQNRQIHSENIGEEKAKVFERIYKVKGIVSKIDENFLKNFDLSEFDLIIDAIDDIPAKVALAHLIDFKKQIFISSTGGARKLDPTRIKTTSIFKTHGDALAKKFRYELRKSGFKGNFDVVFSDEEAHCKDLGSFMGVTASFGLALASLALRKVLAKKS”, which protein production is on record?
A: Its protein production is “failed”.

Q: With “MMNEPQVSFITVCYNGFKDTCELIESLQTHVHSVSYEIIVVDNASREDEATKIKELYSDIVTLRSESNLGFSGGNNLGIRVAKGAYIFLINNDTYVESDGFHYLTERLESQKNIGAVSPKIRFAFPPQNIQFAGFTSLSAITIRNEMTGFGCPDDGTFDTPHTTPYLHGAALMVKREVIEKVGEMPEIFFLYYEEMDWCTQMTNAGYELWYEPRCTVFHKESQSTGQFSKLRTFYMTRNRLLYTRRNRKGAQRLLSILYQSTIAAGKNSLQFAVKGRFDLFAAVWKGVVRSFSVTSPIRLEHHHHHH” as the sequence, how does the protein production read?
A: Its protein production is “failed”.

Q: For “MMNTPESRLVAAGLELPEVAAALGNYEPYSIVGSQLMTSGQFPYLQGKLLYQGQLGADYTVSEGYAACRLATLNAIAQLKQACGELSRIKQIYRLEGVLNVHQSCIEHPKALDGASDLLLEIFGEAGRHSRMIWTNPVMPLNSLCLVYLFAEL”, which protein production is on record?
A: The protein production was “not failed”.

Q: Which protein production does the source give for “MMNYRKADMKDISLLVSIRKRQLIDEGIEPNIDIDKELTRYFNNKLANNLLVEWIAEENNQIIATAAIAFIDFPPTYTNKTGRKGYITNMYTEPTSRGNGIATGMLDRLVNEAKERNIHKICLVASKLGRPVYKKYGFQDTDEWLELNLLEHHHHHH” here?
A: The protein production was “failed”.

Q: Which protein production does the source give for “MMPSVHRRSRPWDPEATPRIPEMALQPAAGARDLNPRQVESNRALSERLASVFRLWGYDEVSPPRVERLDTLMAGGAIASEDVVRLVADEPLGLRPEMTASIARAACTRLASRPRPLRLWASGTVFQSRAADEGGQCIEENLQCGVELFGVAPIEAEMELLSLLMAAVERLDFQAQHQPRLLMGHTGLMDLLLSPVPPVLRDAVRAALIQYDRLGLETIELEEGLRATLLSLLDCRGTPNEVLERLSSCFGAQALFDDLHRLCRQLQGPAAAQGVRLQLDPTFQPRFELYTGLVFQLVCDTHSAPVVVARGGRYDDLVRRCGAQPGQDFGAGFSLAIDPIRELLSDSSSNPTVAPQLMVAFSERSTLEAALERQRWWHQQGRSAVIELHPFSTRSLAEQQATDQGGFQLDWIDP” here?
A: Its protein production is “failed”.

Q: Which protein production does the source give for “MMQDISIFLAFGAGFLSFISPCCLPLYPAFLSYITGMSVSELKEENAMLRKRSMIHTAFFLLGFSIIFIAIGFGTSFIGGIFTDYKDLIRQLGGIFIIVFGLIIVGVFKPKFLMQDRKFTFKNRPSGYFGSVLIGLAFAAGWTPCTGPILVSVIGLAATNPESAMIYMIAYILGFAIPFFVLSFFITKMSWIKRNSMAFMKVGGYIMIVMGVFLYFNWMTKIIVYFSSLFGGFTGF” here?
A: The protein production was “failed”.

Q: For “MMQPLQLSAGGFAVVLGTNEIASAVAVHLHREGCCVVMSHDPFPPVIRRKMAFHDALYGDEVTVEGVRGERVDHATQIFKALRRSDNVLVSWLALPDLLPIGAVDVLIDARMQKHRVTPDLRGLARISVGLGPGFSTAVNCDVAIETRPGRSGLIVGAGWTDAADGVASPLGGVGAERFEYSQASGRWRTAVEIGSRVFSGFTIGHLGGVPVRAPCDGILRGVVRDGQDVPQGVKLLEVDSRGRHAQWTGIDDRGRGIAKAVLRAVQPQAEIRTSYAAQPIAVFLEHHHHHH”, which protein production is on record?
A: The protein production was “not failed”.

Q: For “MMRFSNKFKKVPYLLQALLNVCLSFLALALSALLISETWYIVLFVYKSLFNKVDSYYEMLGELLIFFMYFEFIALIIKYFKSDFHFPLRYFIYIGITAVIRLIIIDHDQAISTFWWAMAILAMICGFFIANRRNSVVEH”, which protein production is on record?
A: The protein production was “failed”.

Q: Which protein production does the source give for “MMRKLLTALPDGGVSALSGLQDAQTVGRISVAPSGRKFLLLTIVLFLITFATHAQVVDTWRFDNPQQQEKALSIAGQLRCPQCQNQNLLESNAPVAVSMRHQVYSMVAEGKSEAEITAWMTDRYGDFVRYNPPLNEQTLLLWALPCLLLLLVGVVVWRVRKRQHAEEGEQ” here?
A: The protein production was “failed”.

Q: With “MMRLRGIPQVFRFLLLLVLAGLAGCASKAPAPEKVAPVYQPEQSKEWERQGRQAYEAGDRKMALEAWHQAVAADPANVRVRNNLALLLKEQERFEEAAEMLEAGLKVTPKVAELHYNLAVISELYLLDLDKALEHYQHYQSLVGEEGSQVAGWIADLERRLE” as the sequence, how does the protein production read?
A: Its protein production is “failed”.

Q: Which protein production does the source give for “MMSNALRRFDPAWFEKYDGIIKHERLGTHVGKPNSSHNYAIEKCVNLMNQGQSIVHALFKQDDVMKREYHIPLNTSIDASRYLLRQGIAFHGHDESEESANKGNFLELVKYTGEQNDATEQMAVVFRFVDKSGTVKERFIEVVHVKETSSASVKSAIDDLFAKYGLSLKTVRGQGYDGASIMKVAKGVAKSFDLLSLLLKIIVVYK” here?
A: The protein production was “failed”.

Q: With “MMSSSTTTLVDAVASPQAQQAVYIGLVNPKTPTNVGGIMRASGCYGVDAVFYTGKRYEYAARGPQQYNADTQSAAERIPLTGVTSLLDAIPAGTQLVCVDLVLGATPLPEFVHPERAFYVFGPEDGTIGQEIIDRADAVVYVPTVGCMNLAASVNVLLYDRLAKTYRKQATNEAEFDGDALIRTSRDNNNRTRVKTTKRESSK” as the sequence, how does the protein production read?
A: Its protein production is “failed”.

Q: Which protein production does the source give for “MMSTHYIAGQWLAGQGETLESLDPVGQGVVWSGRGADATQVDAAVCAAREAFPAWARRPLEQRIELLERFAATLKSRADELARVIGEETGKPLWESATEVTSMVNKVAISVQAFRERTGEKSGPLADATAVLRHKPHGVVAVFGPYNFPGHLPNGHIVPALLAGNCVVFKPSELTPKVAELTLKAWIQAGLPAGVLNLVQGGRETGVALAAHRGLDGLFFTGSSRTGNLLHSQFGGQPQKILALEMGGNNPLVVEEVADLDAAVYTIIQSAFISAGQRCTCARRLLVPQGAWGDALLARLVAVSATLRVGRFDEQPAPFMGAVISLSAAEHLLKAQEHLIGKGAQPLLAMTQPIDGAALLTPGILDVSAVAERPDEEFFGPLLQVIRYSDFAAAIREANATQYGLAAGLLSDSRERFEQFLVESRAGIVNWNKQLTGAASSAPFGGIGASGNHRPSAYYAADYCAYPVASLESPSVSLPATLTPGIS” here?
A: The protein production was “not failed”.

Q: Which protein production does the source give for “MMSTKNGTNQARTSRDVGSELIYLTKALKAPALRDAAARLAERARDEGWSHEEYLAACLQREVAARDSHGAEGRIRAARFPSRKSLEDFDFDHQRSVKREVIAHLGTLDFVAGKENVIFLGPPGTGKTHLATGLGIRACQAGHRVAFGTAAQWVARLAEAHQAGRLSDELTRLGRIPLIVVDEVGYIPFEPEAANLFFQFISGRYERASVIVTSNKPFGRWGEVFGDDTVAAAMIDRLVHHAEVISLKGDSYRMRGRDLGRVPAANTGE” here?
A: The protein production was “failed”.

Q: With “MMTALATVLEVQEDIVVVGCQQKTSCNHCSSKDSCGTGIVSKALPGKVHHWAFHTEKKLSVGQLVEIGLPEKNLLQSAAIVYLTPLLFLLFGALLSEWFLSPMIGLGELTTIVVSVLFALGGYQLAKRLSHHIEQKTEQQVSLLRVLGEPVSDTNLGNAAR” as the sequence, how does the protein production read?
A: Its protein production is “failed”.

Q: With “MMTKKERIAIQRSMAEEALGKLKAIRQLCGAEDSSDSSDMQEVEIWTNRIKELEDWLWGESPIA” as the sequence, how does the protein production read?
A: Its protein production is “not failed”.
